# Reference: IntAct's records for PubMed 29892012
# B1: Protein VAC14 homolog (Homo sapiens), Q08AM6 (parent)
# chain: MNPEKDFAPLTPNIVRALNDKLYEKRKVAALEIEKLVREFVAQNNTVQIKHVIQTLSQEFALSQHPHSRKGGLIGLAACSIALGKDSGLYLKELIEPVLTCFNDADSRLRYYACEALYNIVKVARGAVLPHFNVLFDGLSKLAADPDPNVKSGSELLDRLLKDIVTESNKFDLVSFIPLLRERIYSNNQYARQFIISWILVLESVPDINLLDYLPEILDGLFQILGDNGKEIRKMCEVVLGEFLKEIKKNPSSVKFAEMANILVIHCQTTDDLIQLTAMCWMREFIQLAGRVMLPYSSGILTAVLPCLAYDDRKKSIKEVANVCNQSLMKLVTPEDDELDELRPGQRQAEPTPDDALPKQEGTASGGPDGSCDSSFSSGISVFTAASTERAPVTLHLDGIVQVLNCHLSDTAIGMMTRIAVLKWLYHLYIKTPRKMFRHTDSLFPILLQTLSDESDEVILKDLEVLAEIASSPAGQTDDPGPLDGPDLQASHSELQVPTPGRAGLLNTSGTKGLECSPSTPTMNSYFYKFMINLLKRFSSERKLLEVRGPFIIRQLCLLLNAENIFHSMADILLREEDLKFASTMVHALNTILLTSTELFQLRNQLKDLKTLESQNLFCCLYRSWCHNPVTTVSLCFLTQNYRHAYDLIQKFGDLEVTVDFLAEVDKLVQLIECPIFTYLRLQLLDVKNNPYLIKALYGLLMLLPQSSAFQLLSHRLQCVPNPELLQTEDSLKAAPKSQKADSPSIDYAELLQHFEKVQNKHLEVRHQRSGRGDHLDRRVVL
# Variants of: B1
# Conditions: with fnd3b_human FNDC3B
row,Variant,effect of a mutation on the interaction
1,A127S,with no effect

# Variants of: B1
# Conditions: with at2l2_human PHYKPL
row,Variant,effect of a mutation on the interaction
1,A127S,with no effect

# Variants of: B1
# Conditions: with cd209_human CD209, Q9NNX6
# Chain of cd209_human CD209, Q9NNX6 (Q9NNX6 whole entry): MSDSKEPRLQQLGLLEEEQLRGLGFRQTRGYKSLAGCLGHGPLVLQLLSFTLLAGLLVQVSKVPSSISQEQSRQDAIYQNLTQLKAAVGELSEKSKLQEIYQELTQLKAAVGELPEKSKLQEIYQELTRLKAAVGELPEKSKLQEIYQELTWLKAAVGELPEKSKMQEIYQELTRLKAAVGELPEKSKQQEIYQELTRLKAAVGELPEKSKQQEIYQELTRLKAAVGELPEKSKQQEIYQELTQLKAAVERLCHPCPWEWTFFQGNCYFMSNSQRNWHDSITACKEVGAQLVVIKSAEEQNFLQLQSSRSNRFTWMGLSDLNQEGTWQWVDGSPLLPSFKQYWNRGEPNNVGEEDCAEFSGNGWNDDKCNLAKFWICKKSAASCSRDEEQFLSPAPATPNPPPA
row,Variant,effect of a mutation on the interaction
1,A127S,with no effect

# Variants of: B1
# Conditions: with myome_human PDE4DIP
row,Variant,effect of a mutation on the interaction
1,A127S,with no effect

# Variants of: B1
# Conditions: with co8a1_human COL8A1, P27658
# Chain of co8a1_human COL8A1, P27658 (P27658 whole entry): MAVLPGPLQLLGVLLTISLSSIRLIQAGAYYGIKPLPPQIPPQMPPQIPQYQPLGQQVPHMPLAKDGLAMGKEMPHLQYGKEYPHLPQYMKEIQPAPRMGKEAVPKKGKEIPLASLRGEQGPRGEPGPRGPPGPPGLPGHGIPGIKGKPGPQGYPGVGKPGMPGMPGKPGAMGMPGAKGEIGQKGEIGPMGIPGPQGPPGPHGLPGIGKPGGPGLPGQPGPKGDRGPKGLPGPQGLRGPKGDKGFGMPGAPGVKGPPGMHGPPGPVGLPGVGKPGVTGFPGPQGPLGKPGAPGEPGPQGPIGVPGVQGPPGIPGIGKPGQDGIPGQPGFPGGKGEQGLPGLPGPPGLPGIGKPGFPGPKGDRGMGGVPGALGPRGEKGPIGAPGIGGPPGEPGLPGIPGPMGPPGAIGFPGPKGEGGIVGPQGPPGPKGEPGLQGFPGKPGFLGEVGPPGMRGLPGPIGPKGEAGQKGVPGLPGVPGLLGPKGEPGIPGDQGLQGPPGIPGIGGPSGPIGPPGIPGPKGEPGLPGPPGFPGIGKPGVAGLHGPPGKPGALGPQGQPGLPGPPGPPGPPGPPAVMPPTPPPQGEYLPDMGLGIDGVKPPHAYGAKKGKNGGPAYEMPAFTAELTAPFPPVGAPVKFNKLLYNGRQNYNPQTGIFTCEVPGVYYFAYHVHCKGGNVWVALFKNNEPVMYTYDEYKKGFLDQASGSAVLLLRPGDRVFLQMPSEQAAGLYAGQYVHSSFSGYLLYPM
row,Variant,effect of a mutation on the interaction
1,A127S,with no effect

# Variants of: B1
# Conditions: with znf34_human ZNF34, Q8IZ26
# Chain of znf34_human ZNF34, Q8IZ26 (Q8IZ26 whole entry): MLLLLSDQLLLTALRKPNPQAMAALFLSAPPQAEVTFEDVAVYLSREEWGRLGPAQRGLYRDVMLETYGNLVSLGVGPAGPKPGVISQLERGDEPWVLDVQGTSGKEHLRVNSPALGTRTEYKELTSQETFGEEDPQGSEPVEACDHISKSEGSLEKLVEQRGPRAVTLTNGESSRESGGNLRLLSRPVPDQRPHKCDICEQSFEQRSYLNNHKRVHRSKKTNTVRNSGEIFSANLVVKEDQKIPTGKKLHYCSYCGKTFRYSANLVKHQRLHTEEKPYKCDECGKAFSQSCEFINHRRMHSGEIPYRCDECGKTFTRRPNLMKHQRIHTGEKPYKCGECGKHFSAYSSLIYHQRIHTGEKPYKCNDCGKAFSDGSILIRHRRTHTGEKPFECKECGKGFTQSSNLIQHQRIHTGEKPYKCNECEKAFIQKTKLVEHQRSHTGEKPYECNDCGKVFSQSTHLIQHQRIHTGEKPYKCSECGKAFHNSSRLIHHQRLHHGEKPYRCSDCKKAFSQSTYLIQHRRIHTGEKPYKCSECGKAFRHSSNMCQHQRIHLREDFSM
row,Variant,effect of a mutation on the interaction
1,A127S,with no effect

# Variants of: B1
# Conditions: with ntaq1_human NTAQ1, Q96HA8
# Chain of ntaq1_human NTAQ1, Q96HA8 (Q96HA8 whole entry): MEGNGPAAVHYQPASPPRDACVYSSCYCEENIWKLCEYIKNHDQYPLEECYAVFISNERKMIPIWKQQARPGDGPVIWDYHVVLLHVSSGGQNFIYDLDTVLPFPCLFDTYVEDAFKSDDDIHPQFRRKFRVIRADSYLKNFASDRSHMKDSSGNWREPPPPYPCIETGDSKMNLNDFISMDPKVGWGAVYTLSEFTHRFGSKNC
row,Variant,effect of a mutation on the interaction
1,A127S,with no effect

# Variants of: B1
# Conditions: with casp1_human CASP1, P29466
# Chain of casp1_human CASP1, P29466 (P29466 whole entry): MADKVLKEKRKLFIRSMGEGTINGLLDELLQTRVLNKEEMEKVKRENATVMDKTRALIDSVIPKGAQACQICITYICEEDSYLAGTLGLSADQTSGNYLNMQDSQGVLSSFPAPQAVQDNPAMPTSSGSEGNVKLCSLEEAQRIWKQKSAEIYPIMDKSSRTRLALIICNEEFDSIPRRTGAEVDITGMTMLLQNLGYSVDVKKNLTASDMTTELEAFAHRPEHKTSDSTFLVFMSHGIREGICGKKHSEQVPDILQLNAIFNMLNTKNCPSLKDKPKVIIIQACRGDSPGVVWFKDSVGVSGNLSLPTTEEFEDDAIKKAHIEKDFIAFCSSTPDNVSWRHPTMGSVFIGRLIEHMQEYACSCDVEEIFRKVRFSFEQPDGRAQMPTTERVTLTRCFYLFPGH
row,Variant,effect of a mutation on the interaction
1,A127S,with no effect

# Variants of: B1
# Conditions: with fyv1_human PIKFYVE
row,Variant,effect of a mutation on the interaction
1,A127S,with no effect
